± gives the standard deviation of the averaged measurements.
Tests used:
[1] = test system: VchCAST RNA-guided transposition machinery (E. coli BL21(DE3) host, lacZ target); test: relative integration efficiency (T-RL orientation) vs wild-type transposon end (log2 (normalized fold change)); transposon end mutated: left end; higher = more efficient transposition
Outline: (§1)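 Co-transformation of E. coli BL21(DE3) combined a pUC57 mini-transposon donor, holding barcoded pools of 1549 left-end or 1849 right-end variants, with a T7-driven plasmid encoding a CRISPR array, tniQ-cas8-cas7-cas6 and tnsA-tnsB-tnsC. After plating with 0.1 mM IPTG at 37°C for 18 h, input plasmids and genomic integration junctions were PCR-amplified and Illumina-sequenced across two biological output replicates, with four reference barcodes. Relative integration efficiency is the normalised, log-transformed output/input barcode fold change.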

[2] = test system: VchCAST RNA-guided transposition machinery (E. coli BL21(DE3) host, lacZ target); test: relative integration efficiency (T-LR orientation) vs wild-type transposon end (log2 (normalized fold change)); transposon end mutated: left end; higher = more efficient transposition
Outline: as §1

“TTTTGTGTTGAAACAACCATAAAGTGATAACAACGAATCAATTAAAATCATAGGCTTAATCGAAAAACAACCATATCTTGATATCGCATAAAACAACCATAAGTTGATATTTTTGTGAATAGGATATTCCAACCTTCATAGTTTAGTAAGAA” was tested, and the “relative integration efficiency (log2)” value [1] was 0.192 ± 0.22 and the “relative integration efficiency (log2)” value [2] was -0.791 ± 0.29.

For “TTTTGTGTTGAAACAACCATAAAGTGATATTTACGAATCAATTAAAATCATAGGCTTAATCGAAAAACAACCATATCTTGATATCGCATAAAACAACCATAAGTTGATATTTTGGTGAAAAGGATATTCCAACCTTCATAGTTTAGTAAGAA”, the “relative integration efficiency (log2)” value [1] was 0.179 ± 0.12 and the “relative integration efficiency (log2)” value [2] was -0.00585 ± 0.47.

“TTTTGTGTTGATGCAACCATAAAGTGATAACAACGAATCAATTAAAATCATAGGCTTAATCGAAAAACAACCATATCTTGATATCGCATAAAACAACCATAAGTTGATATTTTGGTGAAAAGGATATTCCAACCTTCATAGTTTAGTAAGAA” was tested, and the “relative integration efficiency (log2)” value [1] was -0.528 ± 0.32 and the “relative integration efficiency (log2)” value [2] was -0.426 ± 0.46.

From the supplement of paper PMC10201428
